Test results as given in paper PMC9797636, “Transcriptomic and enzymatic analysis reveals the roles of glutamate dehydrogenase in Corynebacterium glutamicum” (AMB Express, 2022).

How the values were obtained:
Experiment in all cases: purified protein
Format in all cases: biochemical, Corynebacterium glutamicum
[1] = substrate: NC(=O)C1=CN([C@@H]2O[C@H](COP(=O)(O)OP(=O)(O)OC[C@H]3O[C@@H](n4cnc5c(N)ncnc54)[C@H](OP(=O)(O)O)[C@@H]3O)[C@@H](O)[C@H]2O)C=CC1; details: reductive amination, 2-oxoglutarate, NH4Cl, Tris-HCl pH 7.0, 25 °C, pH 7.0
[2] = substrate: O=C(O)CCC(=O)C(=O)O; details: reductive amination, NADPH, NH4Cl, Tris-HCl pH 7.0, 25 °C, pH 7.0
[3] = substrate: NC(=O)c1ccc[n+]([C@@H]2O[C@H](COP(=O)(O)OP(=O)(O)OC[C@H]3O[C@@H](n4cnc5c(N)ncnc54)[C@H](OP(=O)(O)O)[C@@H]3O)[C@@H](O)[C@H]2O)c1; details: oxidative deamination, L-glutamate, Tris-HCl, 25 °C

B1: GdhA (Corynebacterium glutamicum ATCC 13032) (protein)
chain: MTVDEQVSNYYDMLLKRNAGEPEFHQAVAEVLESLKIVLEKDPHYADYGLIQRLCEPERQLIFRVPWVDDQGQVHVNRGFRVQFNSALGPYKGGLRFHPSVNLGIVKFLGFEQIFKNSLTGLPIGGGKGGSDFDPKGKSDLEIMRFCQSFMTELHRHIGEYRDVPAGDIGVGGREIGYLFGHYRRMANQHESGVLTGKGLTWGGSLVRTEATGYGCVYFVSEMIKAKGESISGQKIIVSGSGNVATYAIEKAQELGATVIGFSDSSGWVHTPNGVDVAKLREIKEVRRARVSVYADEVEGATYHTDGSIWDLKCDIALPCATQNELNGENAKTLADNGCRFVAEGANMPSTPEAVEVFRERDIRFGPGKAANAGGVATSALEMQQNASRDSWSFEYTDERLQVIMKNIFKTCAETAAEYGHENDYVVGANIAGFKKVADAMLAQGVI
[1]
  Km: 166 µM
  Vmax: 1.54 µmol/min/mg
  kcat: 0.257 s⁻¹
  kcat/Km: 1540 M⁻¹ s⁻¹
[2]
  Km: 2534 µM
  Vmax: 0.809 µmol/min/mg
  kcat: 0.135 s⁻¹
  kcat/Km: 53.2 M⁻¹ s⁻¹
[3]
  Km: 505 µM
  Vmax: 1.34 µmol/min/mg
  kcat: 0.224 s⁻¹
  kcat/Km: 443 M⁻¹ s⁻¹
